Assay results as given in patent US20230038638A1, “COMPLEMENT FACTOR I-RELATED COMPOSITIONS AND METHODS” (published 2023).
Positions count from the first letter of the chain named. “And” between values parts separate entries of the source, which are not always exact repeats. Equal values may be shown once.

Columns and labels:
human C4b (human) [1] = biological target: T1, human C4b (human) (UniProt P0C0L4)
T1 sequence: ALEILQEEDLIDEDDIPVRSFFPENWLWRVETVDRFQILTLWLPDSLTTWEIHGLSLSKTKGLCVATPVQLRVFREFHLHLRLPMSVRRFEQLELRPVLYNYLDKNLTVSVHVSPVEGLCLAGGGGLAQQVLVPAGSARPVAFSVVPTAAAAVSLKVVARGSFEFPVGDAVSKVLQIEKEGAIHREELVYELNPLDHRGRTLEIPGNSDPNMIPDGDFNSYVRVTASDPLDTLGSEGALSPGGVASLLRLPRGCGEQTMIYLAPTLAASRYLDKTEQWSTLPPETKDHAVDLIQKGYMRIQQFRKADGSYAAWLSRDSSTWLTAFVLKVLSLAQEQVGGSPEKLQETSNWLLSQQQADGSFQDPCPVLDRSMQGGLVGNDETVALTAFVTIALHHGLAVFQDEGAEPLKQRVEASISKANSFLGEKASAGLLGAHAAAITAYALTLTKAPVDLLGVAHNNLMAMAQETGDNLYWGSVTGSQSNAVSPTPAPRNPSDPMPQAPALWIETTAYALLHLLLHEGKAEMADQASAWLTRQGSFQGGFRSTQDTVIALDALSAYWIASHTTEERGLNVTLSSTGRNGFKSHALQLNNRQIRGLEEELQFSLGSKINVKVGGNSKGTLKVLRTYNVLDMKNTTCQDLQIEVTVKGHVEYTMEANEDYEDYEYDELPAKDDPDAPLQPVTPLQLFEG

[2] = biological target: soluble human C3b (human) (UniProt P01024)
human C4b (human) [3] = biological target: T1, human C4b (human); remark: listed apart in the source
[4] = biological target: soluble human C3b (human) (UniProt P01024); remark: listed apart in the source
human C4b (human) [5] = biological target: T2, human C4b (human) (UniProt P0C0L5)
T2 sequence: T1 sequence with A151T, D317G, P364L, C365S, L368I, D369H, N420S, V451A, L454R, S530A

Substance | C4c EC50 (nM) (human C4b (human) [1]) | iC3b EC50 [2] [nM] | C4b Screen Ref Fold (fold of reference) (human C4b (human) [3]) | iC3b Screen Ref Fold (fold of reference) [4] | C4b Screen Ref Fold (fold of CFI-HSA wild type) (human C4b (human) [3]) | iC3b Screen Ref Fold (fold of CFI-HSA wild type) [4] | further results
CFI-HSA variant T377G; E457G (enzyme) | 20.7 | 5.9 |  |  |  |  | 
CFI-HSA variant F464P (enzyme) |  | > 500 |  |  |  |  | C4c EC50 (human C4b (human) [1]): > 1000 nM
CFI-HSA variant N531D (enzyme) | 77.2 |  | 4.91 | 1.52 |  |  | 
CFI-HSA variant R557E (enzyme) | 151 | > 500 |  |  |  |  | 
CFI-HSA variant D459G (enzyme) | 348 | 24.6 |  |  |  |  | 
CFI-HSA variant N531Q (enzyme) | 310 |  | 3.46 | 0.69 |  |  | 
CFI-HSA variant Y408L; E416A; E457G; E461Q; R462K; N531G (enzyme) | 17.8 |  |  |  | 4.04 | 1.63 | 
CFI-HSA variant E457G; E461Q; F464Y; E530Y; N531G; P558S (enzyme) | 32.4 |  |  |  | 4.03 | 2.44 | 
CFI-HSA variant R365A (enzyme) | > 1000 | 64.3 |  |  |  |  | 
CFI-HSA variant N531G; P535A; R557A (enzyme) | 28.2 | 47.5 |  |  |  |  | 
CFI-HSA variant H370G (enzyme) | > 1000 | 80.8 |  |  |  |  | 
CFI-HSA variant R557S (enzyme) | 247 | 208 |  |  |  |  | 
CFI-HSA variant E457G; E461Q; R557A (enzyme) | 61.8 | 36.6 |  |  |  |  | 
CFI-HSA variant P384A (enzyme) |  |  | 0.29 | 0.03 |  |  | C4b Screen Ref Fold (fold vs CFI-HSA wild type) (human C4b (human) [5]): 0.07; iC3b Screen Ref Fold (fold vs CFI-HSA wild type) [4]: 0.03; C4c EC50 (human C4b (human) [1]): > 1000 nM
CFI-HSA variant E461T (enzyme) | 125 |  | 3.24 | 1.53 |  |  | 
CFI-HSA variant Y408F; E457G; E461Q; F464Y; N531G (enzyme) | 15.1 |  |  |  | 4.43 | 1.81 | 
CFI-HSA variant G406D; N531G (enzyme) |  |  | 6.15 | 0.83 |  |  | C4c EC50 (human C4b (human) [1]): 124 nM
CFI-HSA variant Y408F; E457G; E461Q; N531G (enzyme) | 51 |  |  |  | 4.63 | 1.42 | 
CFI-HSA variant Y408F; E457G; E461Q; R462K; F464Y; N531G (enzyme) | 13.2 |  |  |  | 4.57 | 1.87 | 
CFI-HSA variant T346R; Y408L; N531G (enzyme) |  |  | 3.42 | 0.93 |  |  | C4c EC50 (human C4b (human) [1]): 204 nM
CFI-HSA variant Y408L; E457G; E461Q; R462K; E530F; N531G; P558S (enzyme) | 148 |  |  |  | 3.96 | 1.81 | 
CFI-HSA variant Y408L; E457G; E461Q; R462K; K504H; N531G (enzyme) | 27.5 |  |  |  | 3.83 | 0.84 | 
CFI-HSA variant K14A; Y20F; D26A; R35A; E38A; L304G; P305G; K306G; L307G; S308G (enzyme) | > 1000 |  | 4.19 | 0.04 |  |  | 
CFI-HSA variant Y408F; E416A; E457G; E461Q; R462K; N531G (enzyme) | 11.5 |  |  |  | 4.51 | 1.99 | 
CFI-HSA variant E457G; E461Q; R462K; F464Y; N531G; R557K (enzyme) | 12.4 |  |  |  | 4.47 | 1.49 | 
CFI-HSA variant E457G; E461Q; E530F; N531G; P558S (enzyme) | 17.8 |  |  |  | 4.57 and 4.37 | 1.37 and 1.5 | 

Further lines, with some results ahead:

C4c EC50 (nM) (human C4b (human) [1]) | iC3b EC50 [2] [nM] | C4b Screen Ref Fold (fold of reference) (human C4b (human) [3]) | iC3b Screen Ref Fold (fold of reference) [4] | C4b Screen Ref Fold (fold of CFI-HSA wild type) (human C4b (human) [3]) | iC3b Screen Ref Fold (fold of CFI-HSA wild type) [4] | Substance | further results
183 |  | 1.98 | 1.09 |  |  | CFI-HSA variant N531F (enzyme) | 
51.7 |  |  |  | 4.01 | 2 | CFI-HSA variant E457G; E461Q; R462K; F464Y; K504H; N531G (enzyme) | 
> 1000 |  | 0.01 | 0.07 |  |  | CFI-HSA variant E457P (enzyme) | 
117 | 128 |  |  |  |  | CFI-HSA variant R557I (enzyme) | 
111 | 131 |  |  |  |  | CFI-HSA variant Y408L; E457G; E461Q; R462K; N531G; ΔC-term (Δ558-PFISQYNV (SEQ ID NO: 14)-565) (enzyme) | 
54.5 | 51.6 |  |  |  |  | CFI-HSA variant Y408L; N531G; R557A (enzyme) | 
165 | 198 |  |  |  |  | CFI-HSA variant R557W (enzyme) | 
10.6 |  |  |  | 4.54 | 2.17 | CFI-HSA variant E457G; E461Q; F464Y; N531G; R557K (enzyme) | 
 |  | 0.77 | 1.28 |  |  | CFI-HSA variant G406K (enzyme) | C4c EC50 (human C4b (human) [1]): 183 nM
10.9 | 4.3 |  |  |  |  | CFI-HSA variant T377G; E457G; E461Q; N531G (enzyme) | 
27.4 | 24.2 |  |  |  |  | CFI-HSA variant Y408L; E457G; E461Q; R462K; N531G; R557A (enzyme) | 
143 | > 500 |  |  |  |  | CFI-HSA variant R557G (enzyme) | 
28.4 | 6.5 |  |  |  |  | CFI-HSA variant T377G; E461Q (enzyme) | 
176 |  | 2.21 | 1.16 |  |  | CFI-HSA variant N531S (enzyme) | 
16.4 | 4.4 |  |  |  |  | CFI-HSA variant E457G; N531G; D425R; E530Y (enzyme) | 
30 |  |  |  | 4.51 | 2.69 | CFI-HSA variant E457G; E461Q; R462K; F464Y; E530Y; N531G; P558S (enzyme) | 
12 |  |  |  | 4.74 | 1.79 | CFI-HSA variant E416A; E457G; E461Q; F464Y; N531G (enzyme) | 
27.3 |  |  |  | 4.18 | 2.06 | CFI-HSA variant Y408L; E457G; E461Q; R462K; E530Y; N531G; P558S (enzyme) | 
 |  | 5.44 | 0.96 |  |  | CFI-HSA variant G406D; Y408L; N531G; P535A (enzyme) | C4c EC50 (human C4b (human) [1]): 102 nM
 |  | 5.98 | 0.88 |  |  | CFI-HSA variant G406D; N531G; P535A (enzyme) | C4c EC50 (human C4b (human) [1]): 129 nM
 |  | 0.53 | 0.94 |  |  | CFI-HSA variant N404G (enzyme) | C4b Screen Ref Fold (fold vs CFI-HSA wild type) (human C4b (human) [5]): 0.31; iC3b Screen Ref Fold (fold vs CFI-HSA wild type) [4]: 0.68; C4c EC50 (human C4b (human) [1]): 310 nM
39 |  |  |  | 3.91 | 1.2 | CFI-HSA variant E457G; E461Q; K504H; N531G (enzyme) | 
 |  | 5.16 | 0.93 |  |  | CFI-HSA variant G406D; Y408L; N531G (enzyme) | C4c EC50 (human C4b (human) [1]): 178 nM
